In patent US20030170203A1 (Human Genome Sciences, published 2003):

Legend:
Assay in all cases: flow cytometry on transiently transfected cells
[1] = molecular target: T1, LTβR on transiently transfected cells (UniProt P36941 31-435, limits assumed)
T1 construct: whole, on cells
Description: (§1) One million cells, in 0.1 ml of FACS buffer (PBS, 0.1% BSA, 0.1% NaN₃), were incubated with 0.1-1 microgram of protein or antibody at RT for 15 min. The cells were washed with 3 ml of FACS buffer, reacted with biotinylated primary antibody, and stained with PE-conjugated secondary antibody at RT for 15 min. Cells were then washed again, resuspended in 0.5 microgram/ml of propidium iodide, and live cells were gated and analyzed on a FACScan using the CellQuest software (BD Biosciences).

[2] = molecular target: T2, 4-1BB on transiently transfected cells (UniProt Q07011 24-255, limits assumed)
T2 construct: whole, on cells
Description: as §1

[3] = molecular target: T3, AITR on transiently transfected cells (UniProt Q9Y5U5 26-241, limits assumed)
T3 construct: whole, on cells
T3 sequence (looked up): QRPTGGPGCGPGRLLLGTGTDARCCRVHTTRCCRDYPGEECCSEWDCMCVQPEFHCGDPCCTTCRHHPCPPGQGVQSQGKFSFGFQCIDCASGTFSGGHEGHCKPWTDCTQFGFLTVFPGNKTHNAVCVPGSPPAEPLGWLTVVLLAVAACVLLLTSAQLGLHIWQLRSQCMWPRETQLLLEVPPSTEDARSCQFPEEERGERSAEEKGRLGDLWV
Description: as §1

[4] = molecular target: T4, TNFR2 on transiently transfected cells (UniProt P20333 23-461, limits assumed)
T4 construct: whole, on cells
T4 sequence (looked up): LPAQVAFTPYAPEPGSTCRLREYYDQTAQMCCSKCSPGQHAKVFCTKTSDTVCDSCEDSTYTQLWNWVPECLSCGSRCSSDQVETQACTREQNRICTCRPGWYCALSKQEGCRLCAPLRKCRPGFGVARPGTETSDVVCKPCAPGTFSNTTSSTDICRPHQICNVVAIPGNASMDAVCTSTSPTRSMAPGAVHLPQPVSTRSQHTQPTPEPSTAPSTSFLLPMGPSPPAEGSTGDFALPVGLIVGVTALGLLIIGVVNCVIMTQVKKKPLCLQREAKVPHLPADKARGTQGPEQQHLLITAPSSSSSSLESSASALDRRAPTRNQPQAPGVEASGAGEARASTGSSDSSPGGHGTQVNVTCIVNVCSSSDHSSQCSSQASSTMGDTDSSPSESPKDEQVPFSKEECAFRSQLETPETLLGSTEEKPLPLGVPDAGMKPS
Description: as §1

[5] = molecular target: T5, HveA on transiently transfected cells (UniProt Q92956 39-283, limits assumed)
T5 construct: whole, on cells
T5 sequence (looked up): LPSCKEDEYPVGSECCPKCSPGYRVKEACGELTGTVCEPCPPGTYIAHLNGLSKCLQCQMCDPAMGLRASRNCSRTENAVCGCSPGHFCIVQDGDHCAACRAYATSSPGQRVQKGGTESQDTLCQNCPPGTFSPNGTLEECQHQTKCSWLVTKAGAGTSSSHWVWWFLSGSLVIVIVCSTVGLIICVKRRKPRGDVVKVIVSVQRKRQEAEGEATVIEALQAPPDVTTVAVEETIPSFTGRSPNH
Description: as §1

[6] = molecular target: T6, RANK on transiently transfected cells (UniProt Q9Y6Q6 30-616, limits assumed)
T6 construct: whole, on cells
T6 sequence (looked up): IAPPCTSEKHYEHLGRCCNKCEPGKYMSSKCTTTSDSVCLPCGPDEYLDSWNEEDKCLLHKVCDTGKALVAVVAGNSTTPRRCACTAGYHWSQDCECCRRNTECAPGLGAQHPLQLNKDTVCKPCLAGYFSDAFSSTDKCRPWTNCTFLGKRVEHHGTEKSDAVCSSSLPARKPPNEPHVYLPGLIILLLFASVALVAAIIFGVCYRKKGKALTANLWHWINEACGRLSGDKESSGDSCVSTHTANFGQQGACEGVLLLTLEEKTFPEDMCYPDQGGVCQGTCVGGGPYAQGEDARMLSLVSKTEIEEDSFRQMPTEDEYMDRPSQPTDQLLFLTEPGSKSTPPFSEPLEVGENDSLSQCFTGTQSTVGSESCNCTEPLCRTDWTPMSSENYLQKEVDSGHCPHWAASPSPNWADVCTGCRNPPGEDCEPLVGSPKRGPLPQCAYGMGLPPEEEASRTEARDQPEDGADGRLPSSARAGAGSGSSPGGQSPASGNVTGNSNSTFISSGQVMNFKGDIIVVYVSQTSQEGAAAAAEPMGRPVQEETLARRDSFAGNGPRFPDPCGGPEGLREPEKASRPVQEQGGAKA
Description: as §1

[7] = molecular target: T7, BCMA on transiently transfected cells (UniProt Q02223 1-184, limits assumed)
T7 construct: whole, on cells
T7 sequence (looked up): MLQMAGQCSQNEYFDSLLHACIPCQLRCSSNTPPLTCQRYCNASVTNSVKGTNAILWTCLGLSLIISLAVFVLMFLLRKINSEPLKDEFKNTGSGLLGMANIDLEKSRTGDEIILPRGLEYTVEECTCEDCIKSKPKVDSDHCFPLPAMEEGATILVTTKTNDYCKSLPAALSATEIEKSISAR
Description: as §1

Measured: binding result

T2 sequence (Q07011 24-255 limits assumed): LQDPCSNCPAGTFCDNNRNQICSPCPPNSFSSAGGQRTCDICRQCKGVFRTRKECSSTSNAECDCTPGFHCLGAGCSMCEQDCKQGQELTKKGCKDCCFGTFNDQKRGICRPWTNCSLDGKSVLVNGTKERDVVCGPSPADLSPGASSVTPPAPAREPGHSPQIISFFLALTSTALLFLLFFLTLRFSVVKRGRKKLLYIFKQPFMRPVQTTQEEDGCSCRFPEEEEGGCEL
T1 sequence (P36941 31-435 limits assumed): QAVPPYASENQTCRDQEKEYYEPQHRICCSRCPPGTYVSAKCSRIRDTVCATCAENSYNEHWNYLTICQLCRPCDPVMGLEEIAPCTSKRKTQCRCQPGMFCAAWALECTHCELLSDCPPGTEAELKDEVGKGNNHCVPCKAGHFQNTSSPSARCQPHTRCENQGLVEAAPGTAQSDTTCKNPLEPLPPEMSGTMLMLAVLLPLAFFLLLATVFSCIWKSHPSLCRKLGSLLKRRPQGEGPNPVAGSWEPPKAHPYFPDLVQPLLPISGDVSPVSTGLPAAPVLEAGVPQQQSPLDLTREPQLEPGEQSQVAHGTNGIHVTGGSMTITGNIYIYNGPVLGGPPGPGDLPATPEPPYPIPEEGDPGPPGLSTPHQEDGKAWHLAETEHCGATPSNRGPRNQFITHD

B1: FLAG-tagged soluble form of TNF-gamma-beta (aa 72-251) (ligand, human, UniProt O95150 72-251, looked up)
chain: LKGQEFAPSHQQVYAPLRADGDKPRAHLTVVRQTPTQHFKNQFPALHWEHELGLAFTKNRMNYTNKFLLIPESGDYFIYSQVTFRGMTSECSEIRQAGRPNKPDSITVVITKVTDSYPEPTQLLMGTKSVCEVGSNWFQPIYLGAMFSLQEGDKLMVNVSDISLVDYTKEDKTFFGAFLL
notes: also called FLAG-TL1β; FLAG-TNF-gamma-beta; not shown: FLAG tag of vector pFLAGCMV1
no binding: all assays above
